Experimental data: article PMC5384801 (mAbs, 2016)

Target: trimeric HIV-1 YU-2 gp140 Env (HIV-1 YU-2 (clade B), UniProt P35961, strain)
Test: ELISA

B1: 8C chimeric mAb (bovine V regions, human IgG1/lambda constant regions) (antibody, V domains shown)
VH: QVQLRESGPSLVKPSQTLSLTCTVSGFSLSRYDVNWVRQAPGKALEWVGVISGDGITGYNPALKSRLSITKDNSKSQLSLSVSSVTPEDTATYYCESWVCVGGRDDVCHSDWGQGLLVTVSS
VL: QAVLTQPTSVSVALGQTAKITCSGDLVDEQYTQWYQQKPGQGPVMVIYKDSERPSGISDRFSGSNSGKTATLTISGAQTEDEADYYCHSADSSHAVFGSGTTLTV
B1: no binding.
